Assay results: PMC8131929 (The Journal of Biological Chemistry, 2021)

Biological target: RanQ69L(aa1-180)–GTP (UniProt P62826 1-180, Q69L)
Test: pull-down

B1: His–Xpo 4 (exportin 4, Mus musculus) (natural protein)
chain: not shown
- binding result: binds
